Data taken from publication doi:10.1101/2024.03.17.584836 (bioRxiv, 2024).
Where “and” joins values, the source holds several entries; their conditions need not be identical. Equal entries are not always repeated. Where two headings read alike, the source gives them in different places. Each block holds one molecule with its values, some of them ahead of it.

How the values were obtained:
[1] = target: Nrx1β-Fc (neurexin-1β C-terminally fused to human Fc) (UniProt Q63373)
[2] = target: Nrx1β-Fc (neurexin-1β C-terminally fused to human Fc) (UniProt Q63373); remark: listed apart in the source
[3] = target: Nrx1β-Fc (neurexin-1β C-terminally fused to human Fc) (UniProt Q63373); remark: listed apart in the source
[4] = target: Nrx1β-Fc (neurexin-1β C-terminally fused to human Fc) (UniProt Q63373); remark: listed apart in the source
[5] = target: Nlg1-GFP, wild type, in HEK cell lysate (UniProt Q99K10); assay: single molecule pull-down with counting of photobleaching steps
[6] = target: Nlg1^E584A/L585A-GFP, in HEK cell lysate (UniProt Q99K10); assay: as above
[7] = target: Nrx1β-Fc (neurexin-1β C-terminally fused to human Fc) (UniProt Q63373); assay: FRAP of soluble fluorescent protein bound to ligand-coated micropatterns

Molecule: AP-Nlg1 (AP-tagged Nlg1, full length), expressed in COS-7 cells (from UniProt Q62765 46-843) (receptor)
koff of the reaction part of the PSD-95-GFP FRAP curves [1]: 0.005 s⁻¹ and 0.008 s⁻¹

Molecule: HA-Nlg1-GFP (-21), wild type, expressed in COS-7 cells (from UniProt Q99K10 46-843) (receptor)
koff [2]: 0.004 s⁻¹
enrichment level E (fluorescence on ligand stripes / PEG lines) [3]: 2.3

Molecule: Nlg1-GFP, wild type, in HEK cell lysate (from UniProt Q99K10 46-843) (receptor)
stoichiometry N [5]: 2

B1: Nlg1-HaloTag-AF488 (purified dimeric Nlg1 C-terminally fused to Halo-tag, conjugated to AF488) (other)
chain: QKLDDVDPLVTTNFGKIRGIKKELNNEILGPVIQFLGVPYAAPPTGEHRFQPPEPPSPWSDIRNATQFAPVCPQNIIDGRLPEVMLPVWFTNNLDVVSSYVQDQSEDCLYLNIYVPTEDVKRISKECARKPGKKICRKGDIRDSGGPKPVMVYIHGGSYMEGTGNLYDGSVLASYGNVIVITVNYRLGVLGFLSTGDQAAKGNYGLLDLIQALRWTSENIGFFGGDPLRITVFGSGAGGSCVNLLTLSHYSEGNRWSNSTKGLFQRAIAQSGTALSSWAVSFQPAKYARILATKVGCNVSDTVELVECLQKKPYKELVDQDVQPARYHIAFGPVIDGDVIPDDPQILMEQGEFLNYDIMLGVNQGEGLKFVENIVDSDDGVSASDFDFAVSNFVDNLYGYPEGKDVLRETIKFMYTDWADRHNPETRRKTLLALFTDHQWVAPAVATADLHSNFGSPTYFYAFYHHCQTDQVPAWADAAHGDEVPYVLGIPMIGPTELFPCNFSKNDVMLSAVVMTYWTNFAKTGDPNQPVPQDTKFIHTKPNRFEEVAWTRYSQKDQLYLHIGLKPRVKEHYRANKVNLWLELVPHLHNLNDISQYTSTTTKVPSTDITLRPTRKNSTPVTSAFPTAKQDDPKQQPSPFSVDQRDYSTELS
modifications: HaloTag-Alexa488 ligand (Promega G1002) coupled to the HaloTag
koff [7]: ~0.0015 s⁻¹

The remaining lines, values ahead:

enrichment level E (fluorescence on ligand stripes / PEG lines) [4]: 2.5
Molecule: HA-Nlg1^E584A/L585A-GFP (-21), expressed in COS-7 cells (from UniProt Q99K10 46-843) (receptor)

percent in a monomeric form (1 photobleaching step) [6]: 55%
Molecule: Nlg1^E584A/L585A-GFP, in HEK cell lysate (from UniProt Q99K10 46-843) (receptor)
